Usually Kd stands for the concentration at which binding is half-saturated. Read a low Kd as a tighter complex.

The values below come from patent publication US20210246195A1 (CZ BIOHUB SF, published 2021).

Changes are numbered by the printed parent chain.

The target in test [1] is T1, BSA (UniProt P02769 25-607).
T1 construct: also called bovine serum albumin; immobilized BSA
Put plainly: indirect ELISA heat map, hIgG subtracted. (An ELISA detects its analyte on a solid surface through an enzyme-linked reagent.)

Test [2] concerns the target T2, Ara h 3 (purified natural peanut allergen) (Arachis hypogaea).
T2 construct: mature; bought natural protein; also called natural Ara h 3; NA-AH3-1
In words: BLI, antibody on anti-human IgG Fc sensors, Ara h 3 as analyte, top 32 nM.

Test [3] deals with T1, BSA. Put plainly: indirect ELISA, OD heat map.
The target of test [4] is T2, Ara h 3 (purified natural peanut …). In words: BLI, antibody on anti-human IgG Fc sensors, Ara h 3 as analyte, top 16 nM. In general terms: Biolayer interferometry detects binding as a change in optical thickness at a sensor tip.
Test [5] addresses T3, purified recombinant allergen Aspergillus fumigatus 1 (rAsp f 1) (Aspergillus fumigatus, UniProt P67875 28-176).
T3 sequence: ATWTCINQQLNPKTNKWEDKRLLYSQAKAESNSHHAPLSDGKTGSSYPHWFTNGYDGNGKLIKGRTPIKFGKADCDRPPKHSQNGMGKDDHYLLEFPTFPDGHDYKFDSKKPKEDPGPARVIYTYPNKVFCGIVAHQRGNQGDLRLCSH
In words: indirect ELISA, OD heat map.

Test [6] addresses T1, BSA. Put plainly: indirect ELISA, OD heat map. This is another data set of the same source.

T2 sequence (main, as listed by the source): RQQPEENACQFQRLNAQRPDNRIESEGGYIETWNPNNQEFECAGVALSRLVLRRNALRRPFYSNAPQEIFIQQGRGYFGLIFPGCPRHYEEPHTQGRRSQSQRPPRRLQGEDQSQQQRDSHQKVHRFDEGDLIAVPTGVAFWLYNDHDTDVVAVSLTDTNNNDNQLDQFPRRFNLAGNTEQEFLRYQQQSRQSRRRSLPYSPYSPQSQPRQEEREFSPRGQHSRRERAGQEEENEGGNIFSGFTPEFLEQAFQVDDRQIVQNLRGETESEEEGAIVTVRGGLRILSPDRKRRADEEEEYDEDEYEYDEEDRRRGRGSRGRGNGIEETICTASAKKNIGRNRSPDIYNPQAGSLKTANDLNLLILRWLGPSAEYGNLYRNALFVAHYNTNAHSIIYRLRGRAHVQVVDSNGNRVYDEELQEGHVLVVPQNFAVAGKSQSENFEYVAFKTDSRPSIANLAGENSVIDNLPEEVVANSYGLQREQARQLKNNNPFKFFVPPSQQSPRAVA
T1 sequence (P02769 25-607 limits assumed): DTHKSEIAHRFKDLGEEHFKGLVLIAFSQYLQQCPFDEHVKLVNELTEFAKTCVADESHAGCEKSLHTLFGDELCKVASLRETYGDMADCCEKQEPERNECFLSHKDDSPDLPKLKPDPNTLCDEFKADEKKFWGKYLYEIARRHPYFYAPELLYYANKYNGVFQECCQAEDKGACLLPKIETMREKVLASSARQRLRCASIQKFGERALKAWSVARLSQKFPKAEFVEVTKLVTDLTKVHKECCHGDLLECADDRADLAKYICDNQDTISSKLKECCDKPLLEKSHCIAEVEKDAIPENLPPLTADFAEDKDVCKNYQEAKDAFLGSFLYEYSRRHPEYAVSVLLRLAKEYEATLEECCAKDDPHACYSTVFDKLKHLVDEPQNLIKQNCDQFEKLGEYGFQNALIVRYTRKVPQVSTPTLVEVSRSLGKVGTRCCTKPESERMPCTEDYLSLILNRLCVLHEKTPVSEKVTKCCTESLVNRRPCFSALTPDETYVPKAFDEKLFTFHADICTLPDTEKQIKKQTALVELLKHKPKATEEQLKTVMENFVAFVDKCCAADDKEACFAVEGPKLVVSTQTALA

B1: PA11P1G10 (antibody, human IgG1, V domains shown)
VH: QVQLQESGPGLVKPSQTLSLTCTVSGGSINTGAYYWSWIRQHPGKGLEWIGYIYYSGSTYYNPSLKSRVTISKDTSKNQFSLRLTSVTAADTAVYYCVREKLTGAPDNWGQGTLVAVSS
VL: DIQMTQSPSSLSASVGDRVTITCRASQGVSNYLAWFHQKPGKAPKSLIYAASTLHDGVPSSFSGSGSGTEFTLTISDLQPEHFGTYYCEQYNSYPFTFGPGTTVDFK
notes: human IgG1
As for B1, the binding result with BSA [1] is reported as “no binding (tested: 2 ng/µL)”.

B2: PA13P1H03 (antibody, human IgG1, V domains shown)
VH: EVQLVESGGGLVQPGGSLRLSCAASGFTFRNYWMNWVRQAPGKGLVWVSRINSEGSSTSYADPVKGRFTISRDNAKDTLYLQMDSLRAEDSAVYYCARIFNGYIHVGRDYWGQGTRVTVSS
VL: DIQMTQSPSTLSASIGDRVTITCRASESISNWLAWFQQKPGKAPKLLIYKASNLESGVPSRFSGSGSGTEFTLTISSLQPDDFATYYCQQYNSNSQTFGQGTKLDLK
notes: human IgG1
Turning to B2, in the test with BSA [1], the binding result is on record as “no binding (tested: 2 ng/µL)”.

B3: PA12P3E11 (antibody, human IgG1, V domains shown)
VH: QVQLVESGGGLVTPGGSLRLSCTVSGFTLSDYYMSWIRQAPGKGLDWLSYISGSGDNKNYADSVRGRFTISRDNSKNSLYLQMNSLRAEDTAVYYCAREFPSGGYSPGVVLWGQGTLVTVSS
VL: NFVLTQPHSVSESPGKTVTISCARSSGSIAGSFVQWYQQRPGSSPTTVIYEDTRRPSGVPDRFSGSIDSSSNSASLTISGLKTEDEADYYCQSYDSTNPWVFGGGTKLTVL
notes: human IgG1
For the molecule B3, the binding result in the test with BSA [1] was “no binding (tested: 2 ng/µL)”.

B4: PA11P1D11 (antibody, human IgG1, V domains shown)
VH: QVELVESGGGVVQPGRSLRLSCVASGFTFSDYGMHWVRQAPGKGLEWVAVIWFDGSSKYYADSVKGRFTISRDDSKNTVFMQMNNVRVEDTAVYYCAREQWLGTEYFQNWGQGTLVTVSS
VL: EIVMTQSPATLSLFPGERATLSCRASQSVAGNLAWYQQKPGQAPRLLIYEASTRATDIPARFSGSGSETEFTLTISSLQSEDFAVYYCQQYKKWLITFGQGTRLEIK
notes: human IgG1
Consider B4, for which the binding result with BSA [1] is given as “no binding (tested: 2 ng/µL)”.

B5: PA13P1E10 (antibody, human IgG1, V domains shown)
VH: QVQLVDSGGGVVQPGKSLRLSCVGSGFTFRTFGIHWVRQAPGKGLEWVAVISNDGGNSASADSVKGRFTTSRDNSKNTVYLQINSLRPEDTAIYYCAKVLDYSAFSYYYGMDVWGQGTTVIVSS
VL: EIVLTQSPGTLSLSPGERGTLSCRTSQPISRAHLAWYQHKAGQAPRLLIYGSTERAAGIPERFSGGGSGSDFTLTISSLEAEDFAVYYCQHYGRSPPYTFGQGTKVEIK
notes: human IgG1, kappa
In test [2], B5 displayed a dissociation constant (Kd) of 5 nM. In addition, the binding result in the test with BSA [3] was “no binding (tested: 2 ng/µL)”.

B6: PA13P1H08 variant rCDR1-N (antibody, human IgG1, V domains shown)
VH: QVQLVNSGGGVVQPGRSLRLSCVASGFTFSSYGIHWVRQAPGKGLEWVAVISNDGEKSESADSVKGRFTPSRDNSKNTVYLQMNNLRVEDTAVYYCAKVLDYSRYSYYYGMDVWGQGTTVIVSS
VL: EIVLTQSPGTLSLSPGGRGTLSCRTSQTINNAHLAWYQHKPGQAPRLLIYGSSERATGVPDRFSGSGSGSDFTLTISSLEAEDFAVYYCQHYGRSPPYTFGPGTKLDIK
notes: human IgG1, kappa; also called heavy chain CDR1 reverted
In test [4], B6 registered a Kd of 0.5 nM. Also, the binding result with BSA [3] was “no binding (tested: 2 ng/µL)”.

B7: PA13P1H08 variant rCDR3-N (antibody, human IgG1, V domains shown)
VH: B6 VH with S31T, Y32F, R104N, S106Y
VL: B6 VL
notes: human IgG1, kappa; also called heavy chain CDR3 reverted
In test [4], B7 displayed a dissociation constant Kd of 0.29 nM. In addition, in the test with BSA [3], the binding result was “no binding (tested: 2 ng/µL)”.

B8: PA13P1H08 variant rCDR2-N (antibody, human IgG1, V domains shown)
VH: B6 VH with S31T, Y32F, N53Y, E56S, K57N, S58K
VL: B6 VL
notes: human IgG1, kappa; also called heavy chain CDR2 reverted
In turn, B8 had a Kd in test [4] of 0.0042 nM. For the same molecule, the binding result with BSA [3] is reported as “no binding (tested: 2 ng/µL)”.

B9: 1003320105_D6 (antibody, V domains shown)
VH: EVQLLESGGGLVQPGGSLRLSCAASGFNFSNFAVSWVRQTPGKGLEWVSAILGSRSVTYYADSVKGRFTISRDKSKNALYLQMDSLRAEDTAIYYCAKLFFMPYSHDDSGDYWGQGTLVAVSS
VL: QLVLTQSPSASASLGASVKLTCTLSSDHRSYAIAWHQQQPGKGPRYLMKVNRDGSHIKGDGIPHRFSGSSSVTERYLIISSLQSEDEADYYCQSWDTGIQVFGGGTRLTVV
notes: also called Clone 1003320105_D6
Take B9: the binding result (in test [5]; with BSA [6]) was “no binding (tested: 2 ng/µL)” in each case.

B10: PA13P3G09 (antibody, human IgG1, V domains shown)
VH: QEQLVESGGGVVHPGGSLRLSCVASAFTFNRFGMHWVRQAPGKGLEWVAVISNDGRSQDYADSVKGRFIISRDNSKNTLYLQLNSLRFEDTAVYYCAKVLDYSIFYYYFGLDVWGQGTTVTVSS
VL: EVVLTQSPGSLSLSPGERATLSCRAGQSLSSKFLAWYQHKPGQAPRLLIYGASTRATGVPDRFSGSGSGTDFSLIISRVEPEDFAVYYCQHYGDSPPYTFGQGTKVEMK
notes: human IgG1, kappa
As to B10, binding in test [2] was characterised by a dissociation constant (Kd) of 19 nM. Besides, the binding result with BSA [3] is reported as “no binding (tested: 2 ng/µL)”.

B11: PA12P1G11 (antibody, human IgG1, V domains shown)
VH: QVQLVQSGAEVRKPGSSVKVSCKASGGTFSNNPITWVRQAPGQGLEWMGWIIPIFNTTNYAQKFQGRVTITADESTSTAYMELSSLKSEDTALFYCARDRAHAYCNNGVCYTTDAFDVWGQGTLVTVSS
VL: ETVLTQSPATLSLSPGERATLSCRASQSVGRYLAWYQHKPGQAPRLLIYDASNRATGIPARFSGSGSGTDFTLTISSLEPEDSAVYYCQQGTDWLTFGGGTKVEIK
notes: human IgG1
In the case of B11, in the test with BSA [1], the binding result is “no binding (tested: 2 ng/µL)”.

B12: PA12P4D02 (antibody, human IgG1, V domains shown)
VH: QVQLVESGGGVVQPGRSLRLSCAASGFTFSSYAMHWVRQAPGKGREWVAALSYDGSSTYYADSVKGRLTISRDNSKNTLYLQMNSLRAEDTAVYFCTRVPYGEGRAANDYWGQGTLVTVSS
VL: DIQMTQSPSTLSASVGDRVTITCRASQSIGSWLAWYQQKPGKAPKLLIYKASNIESGVPSRFSGSGSGTEFTLTISSLQPDDFATYYCQHYNTYSRSFGGGTEVAIK
notes: human IgG1
In the case of B12, in the test with BSA [1], the binding result is listed as “no binding (tested: 2 ng/µL)”.

B13: PA12P3D08 (antibody, human IgG1, V domains shown)
VH: QVQLVESGGGVVQPGKSLRLSCAASAFTFRRFAMHWVRQAPGKGLEWVAVISDNGLREDYEDSVKGRFTISRDNSQNTLYLQMNGLRAEDTAVYYCAKVLDYNEYSLYFGMDVWGQGTTVTVSS
VL: EVVLTQSPATLSLSPGERATLSCRTSQAISNNFLAWYQQRPGQPPRLLIYASSRRATDTPDRFTGSGSGTDFTLTITRLEPEDFAVYFCQYYSDSPPYTFGPGTKLEIK
notes: human IgG1, kappa
As to B13, in test [2], binding was put at a Kd of 22 nM. In addition, the binding result in the test with BSA [3] is on record as “no binding (tested: 2 ng/µL)”.

B14: PA12P1C07 (antibody, human IgG1, V domains shown)
VH: B13 VH with V5E, A23V, R30K, Q76K, N77D, G85S, A88P, V93I, N103S, T121L
VL: EIVLTQSPAILSLSPGDRATLSCRTSQTVNSNFLAWYQQKPGQAPRLLIYGASRRAIDIPDRFTGSGSGTEFTLTIARLEPEDFAVYSCQHYSDSPPYTFGQGTKLEIK
notes: human IgG1, kappa
Turning to B14, the Kd in test [2] was 11 nM. The binding result in the test with BSA [3] is “no binding (tested: 2 ng/µL)”.

B15: PA12P1D02 (antibody, human IgG1, V domains shown)
VH: QLQLQQWGAGLVKPSETLSLTCTVSGGSLSGHFWSWIRQSPEKGLEWIGEINHSGRKNYNPSLMIRVDISIDTSKNQFSMRMTSLTAADSAVYYCARVGRNIVDTDDAFDVWGRGTLVTVSS
VL: EIVLTQSPGTLSLSPGDTVTLSCRASQTIDSIYLAWYQQRPGQAPRLLIYGASTRATGTPDRFSGGGSGTDFTLTITRLEPEDFAVYFCQQYGTSPPITFGRGTRLEIK
notes: human IgG1
In the case of B15, the binding result in the test with BSA [1] was “no binding (tested: 2 ng/µL)”.

B16: 1003320101_D6 (antibody, V domains shown)
VH: EVQLVASGGGLIHPGGSLRLSCEASGFSFSRFWMYWVRQSPGEGLVWVARLSGDGTVTNYADSMEGRVTISRDNVKNTLFLEMNSLREGDTGIYYCARKDCPSLSCQLDYWGQGVQVTVSS
VL: QSVLTQPPSVSAAPGQKVTISCSGSTSNIGKNYVSWYQHFPGAAPKLLIFDNDKRPSGIPDRFSGSRSGTSATLDITGLQTGDEADYFCATWDSRLSADVFGSGTTVSVL
notes: also called Clone 1003320101_D6
Take B16: the binding result (in test [5]; with BSA [6]) was “no binding (tested: 2 ng/µL)” throughout.

B17: PA12P3F10 (antibody, human IgG1, V domains shown)
VH: QVQLVESGGGVVQPGGSLTLSCVGSGFTFSHYAIHWVRQAPGKGLEWVAVISNVGTTRDYADSLKGRLTISRENSQSTVFLQMNSLRADDTAIYYCAKVLDYSEFHYYYGLDVWGQGTAVAVSS
VL: EIVLTQSPGTLSLSPGQRVTLSCRVSQAIPTMYVAWYQQRPGQAPRLLIYGTSSRATGIPDRFSGGGSGTDFTLTINRLEPEDIAVYYCQHYSNSPPYTFGPGTKLEIK
notes: human IgG1, kappa
Molecule B17 displayed a Kd in test [2] of 11 nM. Further, in the test with BSA [3], the binding result was “no binding (tested: 2 ng/µL)”.

B18: PA12P3E09 (antibody, human IgG1, V domains shown)
VH: QVQLVQSGAEVKKPGSSVKVSCKASGGTFSSYSISWVRQAPGQGLEWMGGIIPIFGSGSYAQKFQGRVTITADKSTSTAYMELSSLSSDDTAVYYCARGESPSNFVYYGMDVWGQGTTVTVSS
VL: DIVLTQSPLSLPVTPGEPASISCRSSHSLLHSNGYNHLDWYLQKPGQSPQLLIYLGSNRASGVPDRFSGSGSGTDFTLKISRVEAEDVGVYYCMQALLVTFGPGTKVDIK
notes: human IgG1
For the molecule B18, in the test with BSA [1], the binding result is given as “no binding (tested: 2 ng/µL)”.
